Experimental data as given in patent US12214004B2, “Strains having effects of preventing or treating cancers” (Genome And Company, priority 2018, dated 2025).
Read-outs that look alike come from different tables or passages of the source.

Tests used:
HCT116 [1] = assay: HCT116 cell viability, anticancer chemotherapeutic agent with GEN3033
MC38 cancer cells = assay: MC38 tumor-induced model in C57BL/6 mice, MG731; format: in vivo, mouse; details: administered in combination with MG731
Description: Prior to constructing a tumor model, a sample of lactic acid bacteria was administered to mice for 2 weeks to increase intestinal establishment and immunity, and then 2×10^5 MC38 cancer cells were injected subcutaneously in the vicinity of the right hip of 8 C57BL/6 mice per group to construct a tumor-induced model. Simultaneously with injection of tumor cells, a sample of lactic acid bacteria was orally administered to the animal model for 3 weeks (from Monday to Saturday). The sample of lactic acid bacteria to be administered was diluted in 200 μL of PBS so as to be 1×10^9 of CFU per head and then administered orally.

HCT116 [2] = tested on: HCT116
HCT116 [3] = assay: Cell lysis ability of PBMC against cancer cells (CFSE/7-AAD), MG731; format: cell-based; details: cancer cell death caused by PBMC set to 100%
Description: (§1) PBMCs (peripheral blood mononuclear cells) were collected from the human blood using Ficoll, and then red blood cells were removed through RBC lysis buffer, and the number of living cells was counted, and the cells were cultured for 24 hours in a round bottom 96 well plate containing lactic acid bacteria (6×10^5/50 ul/well) by adding PBMC 3 x 10^4 cells/50 μl to each well.
(§2) The colon cancer cell line HCT116 was mixed with 5 μM of CFSE (carboxyfluorescein succinimidyl ester) in RPMI medium without FBS, and reacted at 37° C. for 5 minutes, and then RPMI1640 medium containing FBS was added, and stored on ice for 10 minutes. After the supernatant was removed by centrifugation, the obtained cells were mixed with RPMI1640 containing 10% FBS, and then the number of cells was counted, and 3×10^4 cells/100 μl were added to each well of the above prepared 96 well plate.
Staining for CFSE and 7-AAD using FACSDiVa software (BD Biosciences) was measured to confirm the cell lysis ability of PBMC against cancer cell lines, and the results are shown in FIG. 9.

HCT116 [4] = assay: Cell lysis ability of PBMC against cancer cells (CFSE/7-AAD), GEN3033; format: cell-based, human; details: cancer cell death caused by PBMC set to 100%
Description: as §1, with “(3×10^5/50” for “(6×10^5/50”
as §2
Staining for CFSE and 7-AAD using FACSDiVa software (BD Biosciences) was measured to confirm the cell lysis ability of PBMC against cancer cell lines, and the results are shown in FIG. 29.

[5] = HCT116, combination treatment with 0.5% GEN3033, compared to the agent alone

O=c1[nH]cc(F)c(=O)[nH]1 [5-FU, fluorouracil]
cancer cell death (HCT116 [1]; [5]): remarkably high

N.N.[Cl][Pt][Cl] [Cisplatin, cisplatin]
cell viability (HCT116 [1]; HCT116, 7 μM Cisplatin in combination with 0.5% GEN3033, compared to 7 μM Cisplatin alone): remarkably reduced

O=P1(N(CCCl)CCCl)NCCCO1 (stereo not drawn) [cyclophosphamide]
cancer cell death (HCT116 [1]; [5]): remarkably high

O=C1[O][Pt]2([NH][C@@H]3CCCC[C@H]3[NH]2)[O]C1=O [oxaliplatin]
tumor inhibitory effect (MC38 cancer cells): more excellent | cell viability (HCT116 [2]): ≥ 90% | cancer cell death (HCT116 [1]): remarkably high

CC(=O)O[C@H]1C(=O)[C@@]2(C)[C@H]([C@H](OC(=O)c3ccccc3)[C@]3(O)C[C@H](OC(=O)[C@H](O)[C@@H](NC(=O)c4ccccc4)c4ccccc4)C(C)=C1C3(C)C)[C@]1(OC(C)=O)CO[C@@H]1C[C@@H]2O [paclitaxel]
cancer cell death (HCT116 [1]; [5]): remarkably high

Atezolizumab [anti-PD-L1]
cancer cell death (cytotoxicity) (HCT116 [3]; alone): 133.6% | cancer cell death (cytotoxicity) (HCT116 [3]; in combination with MG731): 221.6% | cancer cell death (cytotoxicity) (HCT116 [4]; alone): 123.5% | cancer cell death (cytotoxicity) (HCT116 [4]; in combination with GEN3033): 154.0%

Ipilimumab [antiCTLA-4]
cancer cell death (cytotoxicity) (HCT116 [3]; alone): 108% | cancer cell death (cytotoxicity) (HCT116 [3]; in combination with MG731): 214.4% | cancer cell death (cytotoxicity) (HCT116 [4]; alone): 116.0% | cancer cell death (cytotoxicity) (HCT116 [4]; in combination with GEN3033): 128.3%
